Substitutions are numbered along the chain they refer to.
T1: human PAR-1 (human, UniProt P25116 22-425)
T1 construct: also called huPAR-1
T1 sequence: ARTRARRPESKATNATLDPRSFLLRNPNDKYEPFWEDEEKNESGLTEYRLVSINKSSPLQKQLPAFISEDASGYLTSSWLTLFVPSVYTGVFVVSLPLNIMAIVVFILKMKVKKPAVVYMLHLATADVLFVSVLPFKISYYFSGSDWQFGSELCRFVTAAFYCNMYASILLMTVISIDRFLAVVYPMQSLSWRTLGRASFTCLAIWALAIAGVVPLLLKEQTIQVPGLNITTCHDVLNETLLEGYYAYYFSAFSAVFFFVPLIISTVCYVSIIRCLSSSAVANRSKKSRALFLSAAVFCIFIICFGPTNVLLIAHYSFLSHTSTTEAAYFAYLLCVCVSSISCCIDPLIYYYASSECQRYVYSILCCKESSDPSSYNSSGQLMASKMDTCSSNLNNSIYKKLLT

T2: human PAR-2 (human, UniProt P55085 26-397)
T2 sequence: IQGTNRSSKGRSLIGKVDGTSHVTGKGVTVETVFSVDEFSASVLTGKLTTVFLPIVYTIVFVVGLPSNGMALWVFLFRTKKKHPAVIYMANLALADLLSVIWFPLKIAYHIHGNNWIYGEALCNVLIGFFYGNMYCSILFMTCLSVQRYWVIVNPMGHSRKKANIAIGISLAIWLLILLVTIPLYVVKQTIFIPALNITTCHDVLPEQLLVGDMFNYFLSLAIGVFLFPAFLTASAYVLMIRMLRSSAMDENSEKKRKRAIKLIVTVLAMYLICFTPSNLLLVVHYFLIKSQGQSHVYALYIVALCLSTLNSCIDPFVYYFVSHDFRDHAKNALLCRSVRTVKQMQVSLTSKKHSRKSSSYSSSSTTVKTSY

B1: Ab234 (antibody, human IgG4, V domains shown)
VH: EVQLVETGGGLVQPGRSLKLSCVASGFTFNNYWLYWIRQAPGKGLEWVSSINNDGGGTYYPDSVKGRFTVSRDNAENTVYLQMNSLRSEDTATYYCARDRAFIRGRFAYWGQGTLVTVSS
VL: EIVLTQSPTTMAASPGEKVTLTCRASSSVIYMHWYQQRSGASPKLWIYETSKLASGVPNRFGGSGSGTSYSLTINSMETEDAATYYCQQGSYYPWTFGGGTKLELK
notes: also called Anti-PAR-2 antibody # 234
B2: Ab209 (antibody, human IgG4, V domains shown)
VH: QVQLQQPGTELVKPGASVKLSCKASGYTFTSYWMHWIKQRPGQGLEWIGNINPSTGSTNFNVKFKTKATLTVDKSSSTTYMQLNSLTSEDSAVYYCAGEAYSNYVAWFAYWGQGTLVTVSS
VL: ENVLTQSPAIMSASLGEKVTMSCRASSSVNYMYWYRQKSDASPKLWIYYTSNLAPGVPTRFSGSGSGTSYSLTISSMEGEDAATYYCQQFTTSPYTFGGGTKLEIK
notes: also called Anti-PAR-2 antibody # 209
B3: Ab335 (antibody, human IgG4, V domains shown)
VH: QVQLKESGPGLVQPSQTLSLSCTVSGFSLSTYGVIWVRQPPGKGLEWMGVIWGNGNTNYNSALKSRLSISRDTSKSQVFLKMNNLQSEDTAMYFCGRWRGYKDYPFDYWGQGVKVTVSS
VL: DIQMTQSPSFLSASVGDRVTINCKASRNIYKYLDWYQQKLGEAPKLLIYNTNNLHTGIPSRFSGSGSGTDFTLTISSLQPEDVATYFCLQHNSGWTFGGGTKLELK
notes: also called Anti-PAR-2 antibody # 335
B4: Ab342 (antibody, human IgG4, V domains shown)
VH: B3 VH with S30N, E46D, N58Y, N60D, V78I, Y101F
VL: B3 VL with S7T, K24R, R27Q, Q38L, N53T, T96A
notes: also called Anti-PAR-2 antibody # 342
B5: Ab311 (antibody, human IgG4, V domains shown)
VH: B3 VH with S30T, E46M, N58Y, A62P
VL: B3 VL with R27Q, T51S, N53I, I58V, T74S, T101S, K106R
notes: also called Anti-PAR-2 antibody # 311
B6: Ab323 (antibody, human IgG4, V domains shown)
VH: B3 VH with S21T, T23S, V34I, N58H, S70T, S87T, K114M
VL: B3 VL with R27Q, I48M, N53T
notes: also called Anti-PAR-2 antibody # 323
B7: Ab303 (antibody, human IgG4, V domains shown)
VH: QVTLKESGPGILQPSHTLSLTCSFSGFSLSTYGMGVSWIRQPSGKGLEWLASIWWNGNTYNNPSLKSRLTVSKDTSNNQAFLKVTSVDTADTATYYCAHTPNLGNWFAYWGQGTLVTVSS
VL: DIQMTQSPSFLSASVGERVTLSCKTSQKINRYLDWYQQKLGEAPKLLIYNTNNLHTGIPSRFSGSGSGTDYTLTISSLQPEDVATYFCLQHSSWPTFGAGTKLELK
notes: also called Anti-PAR-2 antibody # 303
B8: Ab261 (antibody, human IgG4, V domains shown)
VH: EVQLVESGGGLVQPGRSLKLSCVASGFTFNNYWMTWIRQAPGKGLEWVASITNTGGNTYYPDSVKGRFTISRDNAKSTLYLQMNSLRSEDTATYYCTRDRIIRGADWFAYWGQGTLVTVSS
VL: DIQMTQSPHSLSASLGETVSIECLASEGISNYLAWFQQKPGKSPQLLIYYASSLQDGVPSRFSGSGSGTQYSLKISNMQPEDEGVYYCQQGYKYPWTFGGGTKLELK
notes: also called Anti-PAR-2 antibody # 261
B9: Ab228 (antibody, human IgG4, V domains shown)
VH: B8 VH with A24V, T54S, A105S, D106T
VL: B8 VL with F36Y, Q89H
B10: Ab380 (antibody, human IgG4, V domains shown)
VH: B8 VH with S25T, T54S, N74D, D99V, I101V, I102Y, R103Y, A105S, D106N, A109V
VL: B8 VL
notes: also called Anti-PAR-2 antibody # 380
B11: Ab435 (antibody, human IgG4, V domains shown)
VH: B8 VH with A24G, K43W, N57R, I101V, I102Y, R103Y, A105S, D106N, A109V
VL: B8 VL with F36Y, V85I, G91H
B12: Ab227 (antibody, human IgG4, V domains shown)
VH: B8 VH with T54S, N57R, I70V, N74S, A105S, D106T, A109T
VL: B8 VL with K103E
notes: also called Anti-PAR-2 antibody # 227
B13: Ab225 (antibody, human IgG4, V domains shown)
VH: QVQLKESGPGLVQPSQTLSLTCTVSGFSLTSYHVSWVRQSPGKGLEWMGIIWTGGSTAYNSLLKSRLSISRDTSKSQVFLKMNSLQTEDTATYYCARRGAYPFYFDYWGQGVMVTVSS
VL: EIVLTQSPTTMAASPGEKVTITCRASSSVRSMYWYQQKSGASPKPWIYETSKLTSGVPDRFSGSGSGTSYSFTISSMGTEDAGTYYCHQWTTTPYTFGAGTKLELK
notes: also called Anti-PAR-2 antibody # 225
B14: Ab245 (antibody, human IgG4, V domains shown)
VH: B13 VH with S19F, S40P, S65P, S68T, Q86R, A100L
VL: EVVLTQSPTTMAASPGEKVTITCRATSSVSHMYWYQQKSGASPKPWIYETSKLASGVPDRFRGSGSGTSYSFTISSMETEDVATYYCHQWSSFPYTFGPGTKLELK
notes: also called Anti-PAR-2 antibody # 245
B15: Ab248 (antibody, human IgG4, V domains shown)
VH: B13 VH with S31N, S40P, A100L, F103Y
VL: B13 VL with M11L, S28R, R30S, S31N, P45A, T54A, G78E, G83A, T92S
notes: also called Anti-PAR-2 antibody # 248
B16: Ab5 (antibody, human IgG4, V domains shown)
VH: QVQLQQPGSELVKPGASVKLSCKASGYTFTNYWMHWVKQRPGQGLEWIGMIHPNSDFSNYNEKFKKKATLTVDKSSSTAYMQLSSLTSEDSAVYFCAKGPNYYGSRYWYFDVWGTGTTVTVSS
VL: DIVLTQSPTSLAVSLGQRATISCRASESVDSYGNSFLHWYQQKAGQPPKLLIYRTSNLESGIPARFSGSGSRTDFTLTINPVEADDVATYFCQQSNEDPYTFGGGTKLELK
notes: also called Anti-PAR-2 antibody # 5
B17: Ab201 (antibody, human IgG4, V domains shown)
VH: QVQLQQSGPELVKPGASVKISCKASGFSFTSFYIHWVNQRPGQGLEWIGWIYPGSGNTLYNEKFKGKATLTADTSSSTAYIHLSSLTSEDSAVYYCTRGPLFYGSSHWYFDVWGMGTTVTVSS
VL: EVQITQSPSYLAASPGETITINCRASKSISKYLAWYQEKPGKTNKLLIYSGSTLQSGIPSRFSGSGSGTDFTLTISSLEPEDFAMYYCQQHNKYPLTFGAGTRLELK
B18: Ab313 (antibody, human IgG4, V domains shown)
VH: EVQLKESGPGLVQPSQTLSLTCTVSGFSLTDYSVHWVRQPPGKGLEWMGVMWSGGSTSYNSPLKSRLSISRDTSKSQVFLKTNSLQTEDTAIYYCTRARPTVATLDYWGQGVMVTVSS
VL: DIQMTQSPSVLSASVGDRVILNCKASQKINKYLNWYQQKLGEAPKLLIYTTNNLQTGIPSRFSGSGSGTDFTLTISSLQPEDFATYFCFQHSSWPTFGAGTKLELK
notes: also called Anti-PAR-2 antibody # 313

Molecular target: T1, human PAR-1
Assay: flow cytometry, transfected Expi293F cells
Protocol: Paired heavy and light chains encoded by these sequence pairs were expressed as a full length human IgG4 isotype antibodies and assessed for PAR-2 binding and selectivity by flow cytometry. […] Cells were used for flow cytometric analysis 36-48 hours post-transfection. Use of Nt-PAR-2 as a target allowed antibodies which bound the N-terminal residues of PAR-2 (which comprise the protease-cleavage sites on PAR-2) to be distinguished from antibodies which bound other extracellular sites on PAR-2, such as the PAR-2-activating ligand-binding site(s). Expi293F cells, transiently expressing one of each of the different target proteins were labelled with different intensities of a single fluorphor Encoder dye (Intellicyt) for 10 mins at either 1 in 250 dilution for high intensity and/or 1 in 1500 dilution for moderate intensity, enabling simultaneous analysis of multiple cell populations. After washing the cells were then mixed in an equal ratio with the unlabeled cell type and analyzed for antibody binding.
The cells were plated in 96 well plates at 2×10⁵ cells/well. Following a wash step using Phosphate buffered saline (PBS), the primary antibody (anti-PAR-2 antibody) was added at a concentration of 10 μg/mL in 50 μL of FACS buffer (0.5% w/v BSA in PBS) to each well and incubated for 10-15 mins. Following a wash step, secondary antibody (anti-human Fc-FITC) was added to the wells at 1:200 dilution in 50 μL for 10-15 mins. Following a washing step, the cells were re-suspended in fluorescence-activated cell sorting (FACS) buffer. The flow cytometry analysis was performed on an Intellicyt iQue screener. Gates were drawn around the different intensities of encoder dye-positive cells and these populations were analyzed separately from each other and the unlabeled cells for binding by the primary antibody.

binding result	Binder
no binding (tested: 10 µg/mL)	B1
no binding (tested: 10 µg/mL)	B2
no binding (tested: 10 µg/mL)	B3
no binding (tested: 10 µg/mL)	B4
no binding (tested: 10 µg/mL)	B5
no binding (tested: 10 µg/mL)	B6
no binding (tested: 10 µg/mL)	B7
no binding (tested: 10 µg/mL)	B8
no binding (tested: 10 µg/mL)	B9
no binding (tested: 10 µg/mL)	B10
no binding (tested: 10 µg/mL)	B11
no binding (tested: 10 µg/mL)	B12
no binding (tested: 10 µg/mL)	B13
no binding (tested: 10 µg/mL)	B14
no binding (tested: 10 µg/mL)	B15
no binding (tested: 10 µg/mL)	B16
no binding (tested: 10 µg/mL)	B17
no binding (tested: 10 µg/mL)	B18

Molecular target: T2, human PAR-2
Assay: cell-based or functional assay

IC50, PAR-2 β-arrestin cell assay [nM]	Binder
4.8	B1
65.5	B2
2.5	B3
1.9	B4
1.8	B5
2.1	B6
9	B7
19.9	B8
33.3	B9
57.1	B10
53.8	B11
10.2	B12
3.4	B13
3.8	B14
4.6	B15
23.1	B16
10.7	B17
8.2	B18

Reference: patent publication US20220056125A1 (CEPHALON, published 2022)
